Measurements published in paper PMC5922973, “Topoisomerase VI senses and exploits both DNA crossings and bends to facilitate strand passage” (eLife, 2018).

Biological target: the molecule itself
Experiment: FRET or BRET; bulk FRET between Alexa555 and Alexa647 on Cys155 of the two Top6B in the holoenzyme; 200 nM topo VI with 100 uM bp supercoiled plasmid DNA, before and over time after 1 mM AMPPNP; 50 mM potassium glutamate, 20 mM HEPES-KOH pH 7.5, 10 mM MgCl2

B1: M. mazei Top6B KGRR^AAA cyslite-155C, Alexa555/Alexa647-labeled, in the topo VI holoenzyme (enzyme, Methanosarcina mazei)
chain: METPIAEELAKKQKSISVAEFFEKNRQILGFDSAPRSLITTVKEAVDNALDACEEAGILPDILVQVERTGPDYVTVIIEDNGPGIVREQIPKVFAKLLYGSRFHALKQSRGQQGIGISAAVLYAQMTAGRHTKILSKTSPTAPAHYYELMINTSCNEPDILVDEVRDWFRPHGTQIELEMRAAYVAGAAQSIYEYLKATAIVNPHARITLIDPDGNEEVFERATDKMPEPAEEILPHPEGIELGTLMKMLHYTERQKLAPFLRYSFSKIGLLTAEEIAKAAGLDPEIDPHALGRHEARKLIEAFEKVKIMAPPTDALSPIGEDLIYRGLEKETTVDFIATSTRKPAVYSGNPFVVEVGMAYGGNLPKEEKISIMRFANRVPLLYQQGGCVTTHAVEDIKWKQYGLNQPGGGIPVGPVILLIHVASINVPFTSESKDAIADIPVIKEEIDLAIKEVARKLKHYLSKQSNLKKRREKEIIITKVLPKLAAKVAHVLEKDVPDINPVVAKIMGNLLVHRVIKNNGDGTVDVAIKVKNFGTSAYSFRVHEMLPAKVSGAKPEPKVVTMGNDYDYVWDISASAGSSKVLSYKIESASEEELQKLPQLIVEGIEEELVTGAKAFKGV
modifications: Alexa Fluor 555 C2 maleimide or Alexa Fluor 647 C2 maleimide on Cys155
notes: Top6B of Methanosarcina mazei topo VI, cyslite-155C with the KGRR^AAA mutations; Stood in the assay as part of the A2B2 holoenzyme with Top6A; also called Top6AB-KGRR^AAA cyslite-155C; KGRR^AAA FRET assay construct; not shown: His6, N-terminal, cleaved
- binding result: binds

B2: M. mazei Top6B H2TH^AAA cyslite-155C, Alexa555/Alexa647-labeled, in the topo VI holoenzyme (enzyme, Methanosarcina mazei)
chain: METPIAEELAKKQKSISVAEFFEKNRQILGFDSAPRSLITTVKEAVDNALDACEEAGILPDILVQVERTGPDYVTVIIEDNGPGIVREQIPKVFAKLLYGSRFHALKQSRGQQGIGISAAVLYAQMTAGRHTKILSKTSPTAPAHYYELMINTSCNEPDILVDEVRDWFRPHGTQIELEMRAAYVKGRRQSIYEYLKATAIVNPHARITLIDPDGNEEVFERATDKMPEPAEEILPHPEGIELGTLMKMLHYTERQKLAPFLAYSFSAIGLLTAEEIAKAAGLDPEIDPHALGRHEARKLIEAFEKVAIMAPPTDALSPIGEDLIYRGLEKETTVDFIATSTRKPAVYSGNPFVVEVGMAYGGNLPKEEKISIMRFANRVPLLYQQGGCVTTHAVEDIKWKQYGLNQPGGGIPVGPVILLIHVASINVPFTSESKDAIADIPVIKEEIDLAIKEVARKLKHYLSKQSNLKKRREKEIIITKVLPKLAAKVAHVLEKDVPDINPVVAKIMGNLLVHRVIKNNGDGTVDVAIKVKNFGTSAYSFRVHEMLPAKVSGAKPEPKVVTMGNDYDYVWDISASAGSSKVLSYKIESASEEELQKLPQLIVEGIEEELVTGAKAFKGV
modifications: Alexa Fluor 555 C2 maleimide or Alexa Fluor 647 C2 maleimide on Cys155
notes: Top6B of Methanosarcina mazei topo VI, cyslite-155C with the H2TH^AAA mutations; Stood in the assay as part of the A2B2 holoenzyme with Top6A; also called Top6AB-H2TH^AAA cyslite-155C; not shown: His6, N-terminal, cleaved
- binding result: binds
